B1: Early protein (Human adenovirus C serotype 5 (HAdV-5)), P03255-2 (parent)
chain: MRHIICHGGVITEEMAASLLDQLIEEVLADNLPPPSHFEPPTLHELYDLDVTAPEDPNEEAVSQIFPDSVMLAVQEGIDLLTFPPAPGSPEPPHLSRQPEQPEQRALGPVSMPNLVPEVIDLTCHEAGFPPSDDEDEEGPVSEPEPEPEPEPEPARPTRRPKMAPAILRRPTSPVSRECNSSTDSCDSGPSNTPPEIHPVVPLCPIKPVAVRVGGRRQAVECIEDLLNEPGQPLDLSCKRPRP

Variants of: B1
Conditions: with kat2b_human KAT2B

Variant	effect of a mutation on the interaction
E55A;D56A;P57A;N58A;E59A;E60A	decreasing interaction
